These results are taken from patent US20050026827A1, “Octapeptide bombesin analogs” (Societe de Conseils de Recherches et d'Applications …, priority 1987, published 2005).

Read-outs that look alike come from different tables or passages of the source. Non-standard residues stand in square brackets, D forms with d. Residues, ends and D or L forms follow the SMILES beside them. No end group written: not given here. *: point of attachment. dPhe(F5) = N[C@H](Cc1c(F)c(F)c(F)c(F)c1F)C(=O)O; X2 = CC(C)C[C@@H](CN[C@@H](CC(C)C)C(N)=O)N*; Sta = CC(C)C[C@H](N)[C@@H](O)CC(=O)O; pGlu = O=C1CC[C@@H](C(=O)O)N1; dNMeA = CN[C@H](C)C(=O)O

Experiment [1] addresses T1, 3T3 fibroblast bombesin receptors (3T3 GRP receptor) (Mus musculus, UniProt P21729).
T1 construct: Membranes from various tissues (rat brain, rat pancreas, rat anterior pituitary, SCLC, 3T3 cells) are prepared by homogenization; endogenous in cells; host or cells: 3T3 fibroblasts (membrane preparation)
Kind of experiment: In vitro inhibition of [125I]GRP binding to 3T3 fibroblast bombesin receptors. On the set-up: species or system murine. The settings on record: for activity in the 3T3 GRP receptor binding assay (in words): Table 1. Here is the method:
Phase 4—In Vitro Inhibition of [^125I] Gastrin Releasing Peptide (GRP) Binding to Bombesin Receptors
Membranes from various tissues (rat brain, rat pancreas, rat anterior pituitary, SCLC, 3T3 cells) are prepared by homogenization in 50 mM TrisHCl containing 0.1% bovine serum albumin and 0.1 mg/ml bacitracin followed by two centrifugations (39,000×g×15 min., 4° C.) with an intermediate resuspension in-fresh buffer. For assay, aliquots […] are incubated with 0.5 nM [^125I]GRP (˜2000 Ci/mmol, Amersham Corp.) and various concentrations of the test compounds in a final volume of 0.5 ml. After a 30 minute incubation at 4° C., the binding reaction is terminated by rapid filtration through Whatman GF/C filters that have been pre-soaked in 0.3% aqueous polethyleneimine to reduce the level of nonspecific binding. The filters and tubes are washed three times with 4 ml aliquots of ice-cold buffer, and the radioactivity trapped on the filters is counted by gamma-spectrometry. Specific binding is defined as the total. [^125I]GRP bound minus that bound in the presence of 1000 nM. bombesin or a related peptide.
(§1) A number of analogs of bombesin or GRP, each containing a non-peptide bond or a statine, AHPPA, or ACHPA, β-amino acid, or γ-amino acid residue, can be synthesized and tested in one or more of the above-described Phase 1-7 assays; the results of Phase 1 and 2 tests are given in Table 1 attached hereto. […] (3T3 GRP receptor and thymidine uptake data are expressed in IC50 (nM).) Table 1 also gives results for non-peptide bond-containing analogs of one other naturally-occurring peptide, Neuromedin C, whose C-terminal seven amino acids are similar to those of bombesin and GRP. (In Table 1, “Litorin” indicates a 9 residue peptide analog or its derivative, whereas “Neuromedin C” indicates a 10 residue analog or its derivative.)

The target in the next experiment is swiss 3T3 cells (Mus musculus, UniProt P21729). The experiment is described as follows: Bombesin-stimulated [3H]thymidine uptake by cultured 3T3 cells. In kind it is cell-based, murine. The settings on record: Table 1. The procedure: Phase 1—3T3 Peptide Stimulated [^3H] Thymidine Uptake Assay
Cell Culture. Stock cultures of swiss 3T3 cells are grown in Dulbecco's Modified Eagles Medium (DMEM) supplemented with 10% fetal calf serum in humidified atmosphere of 10% CO2/90% air at 37° C. For experimental use, the cells are seeded into 24-well cluster trays and used four days after she last change of medium. The cells are arrested in the G1/G0 phase of the cell cycle by changing to serum-free DMEM 24 hours prior to the thymidine uptake assay.
Assay of DNA Synthesis. The cells are washed twice with 1 ml aliquots of DMEM (-serum) then incubated with DMEM (-serum), 0.5 μM [methyl-^3H] thymidine (20 Ci/mmole, New England Nuclear), bombesin (3 nM), and initially four concentrations of the test compounds (1, 10, 100, 1000 nM) in a final volume of 1.0 ml. After 28 hours at 37° C., [methyl-^3H] thymidine incorporation into acid-insoluble pools is assayed as follows. The cells are washed twice with ice-cold 0.9% NaCl (1 ml aliquots), and acid soluble radioactivity is removed by a 30 min. (4° C.) incubation with 5% trichloroacetic acid (TCA). The cultures are then washed once (1 ml) with 95% ethanol and solubilized by a 30 min. incubation (1 ml) with 0.1N NaOH. The solubilized material is transferred to vials containing 10 ml ScintA (Packard), and the radioactivity is determined by liquid scintillation spectrometry.
as §1

A further experiment addresses T2, bombesin receptor (Rattus norvegicus, UniProt P52500).
T2 construct: displace ^125I-labeled bombesin from rat pancreatic acini cells; from tissue; host or cells: rat pancreatic acini cells
The experiment is described as follows: Displacement of 125I-labeled bombesin from rat pancreatic acini cells. Type of experiment: binding. The settings on record: read-out: half-maximal effective dose, displacement of 125I-labeled bombesin. The text has this:
D-Phe-Gln-Trp-Ala-Val-N-methyl-D-Ala-His-Leu-methylester and D-F5-Phe-Gln-Trp-Ala-Val-D-Ala-His-Leu-methylester were examined for their abilities to displace ^125I-labeled bombesin from rat pancreatic acini cells and to inhibit amylase release from these cells produced by bombesin itself.
(In general: Loss of bound radioactivity is the signal in a displacement assay; it reports binding, not function.)

Experiment [2] has as its target 3T3 fibroblast bombesin receptors (murine (3T3 murine fibroblasts)) (UniProt P21729).
The target is the same in experiment [3]. The experiment is described as follows: inhibition of [125I]GRP binding to 3T3 cell membranes.
Experiment [4] addresses 3T3 fibroblast bombesin receptors (murine (3T3 murine fibroblasts), UniProt P21729). Described as above.
The mark [5] stands for this setting: inhibition of [125I]GRP binding, 3T3 membranes, read-out: 3T3 GRP Receptor IC50.

3T3 fibroblast bombesin receptors (murine (3T3 murine fibroblasts)), sequence (P21729 whole entry): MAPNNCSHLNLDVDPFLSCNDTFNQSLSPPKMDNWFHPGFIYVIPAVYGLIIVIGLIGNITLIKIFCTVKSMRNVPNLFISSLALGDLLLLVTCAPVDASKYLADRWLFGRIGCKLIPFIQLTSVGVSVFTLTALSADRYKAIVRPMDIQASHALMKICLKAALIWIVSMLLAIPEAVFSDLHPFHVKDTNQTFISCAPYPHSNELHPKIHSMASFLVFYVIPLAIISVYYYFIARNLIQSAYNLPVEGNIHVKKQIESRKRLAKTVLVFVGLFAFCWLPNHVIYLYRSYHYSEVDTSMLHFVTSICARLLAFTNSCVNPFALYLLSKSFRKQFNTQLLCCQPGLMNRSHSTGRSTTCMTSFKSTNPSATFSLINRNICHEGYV
T1 sequence (P21729 whole entry): as above
swiss 3T3 cells, sequence (P21729 whole entry): as above
T2 sequence (P52500 whole entry): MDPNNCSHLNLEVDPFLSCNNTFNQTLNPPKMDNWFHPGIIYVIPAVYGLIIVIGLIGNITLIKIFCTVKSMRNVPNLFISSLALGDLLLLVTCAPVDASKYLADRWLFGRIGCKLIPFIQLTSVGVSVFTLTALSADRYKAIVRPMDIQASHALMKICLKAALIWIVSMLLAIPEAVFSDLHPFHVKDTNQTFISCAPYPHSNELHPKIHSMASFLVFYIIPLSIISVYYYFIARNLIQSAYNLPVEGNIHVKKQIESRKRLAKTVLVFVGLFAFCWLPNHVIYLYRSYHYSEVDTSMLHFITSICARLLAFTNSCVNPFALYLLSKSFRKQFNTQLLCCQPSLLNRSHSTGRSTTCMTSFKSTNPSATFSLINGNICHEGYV

Consider `CC(C)C[C@@H](CN[C@@H](CC(C)C)C(N)=O)NC(=O)[C@H](Cc1c[nH]cn1)NC(=O)[C@@H](C)NC(=O)[C@@H](NC(=O)[C@H](C)NC(=O)[C@H](Cc1c[nH]c2ccccc12)NC(=O)[C@H](Cc1c[nH]cn1)NC(=O)[C@H](CC(N)=O)NC(=O)[C@@H](C)N)C(C)C` [BIM-26105, D-Ala-Asn-His-Trp-Ala-Val-D-ALa-His-Leuψ[CH2CH]Leu-NH2] (H-[dA]NHWAV[dA]H-X2; N-terminus assumed), for which, in experiment [1], the IC50 came out at 107 nM and the “activity in the 3T3 GRP receptor binding assay (in words)” value is “antagonists”. Besides, at swiss 3T3 cells, the “activity in the 3T3 thymidine uptake assay (in words)” value was “antagonists”.
`CC(C)C[C@@H](CN[C@@H](CC(C)C)C(N)=O)NC(=O)[C@H](Cc1c[nH]cn1)NC(=O)[C@@H](C)NC(=O)[C@@H](NC(=O)[C@H](C)NC(=O)[C@H](Cc1c[nH]c2ccccc12)NC(=O)[C@H](Cc1c[nH]cn1)NC(=O)[C@@H](C)N)C(C)C` [BIM-26106, desGly-D-Ala-His-Trp-Ala-Val-D-ALa-His-Leuψ[CH2CH]Leu-NH2] (H-[dA]HWAV[dA]H-X2; N-terminus assumed): the “activity in the 3T3 GRP receptor binding assay (in words)” value in experiment [1] is “antagonists”. In experiment [1] (setting [5]), the IC50 turned out to be 401 nM. Also, at swiss 3T3 cells, the “activity in the 3T3 thymidine uptake assay (in words)” value is recorded as “antagonists”.
In the case of `CC(C)C[C@@H](CN[C@@H](CC(C)C)C(N)=O)NC(=O)[C@H](Cc1c[nH]cn1)NC(=O)CNC(=O)[C@@H](NC(=O)[C@H](C)NC(=O)[C@H](Cc1c[nH]c2ccccc12)NC(=O)[C@H](Cc1c[nH]cn1)NC(=O)[C@H](N)Cc1ccccc1)C(C)C` [BIM-26107, D-Phe-His-Trp-Ala-Val-Gly-His-Leuψ[CH2NH]Leu-NH2] (H-[dF]HWAVGH-X2), in experiment [1], the “activity in the 3T3 GRP receptor binding assay (in words)” value is given as “antagonists”. Moreover, in experiment [1] (setting [5]), the IC50 is 199 nM. Besides, at swiss 3T3 cells, the “activity in the 3T3 thymidine uptake assay (in words)” value is “antagonists”.
Regarding `CC(=O)N[C@H](C)C(=O)N[C@@H](Cc1c[nH]cn1)C(=O)N[C@@H](Cc1c[nH]c2ccccc12)C(=O)N[C@@H](C)C(=O)N[C@H](C(=O)NCC(=O)N[C@@H](Cc1c[nH]cn1)C(=O)N[C@H](CN[C@@H](CC(C)C)C(N)=O)CC(C)C)C(C)C` [BIM-26108, N-Ac-D-Ala-His-Trp-Ala-Val-Gly-His-Leuψ[CH2NH]Leu-NH2] (Ac-[dA]HWAVGH-X2), the IC50 in experiment [1] (setting [5]) is 841 nM. Further, the “activity in the 3T3 thymidine uptake assay (in words)” value on swiss 3T3 cells was “negative results”.
For `COC(=O)[C@H](CC(C)C)NC(=O)[C@H](Cc1c[nH]cn1)NC(=O)[C@@H](C)NC(=O)[C@@H](NC(=O)[C@H](C)NC(=O)[C@H](Cc1c[nH]c2ccccc12)NC(=O)[C@H](CCC(N)=O)NC(=O)[C@H](N)Cc1c(F)c(F)c(F)c(F)c1F)C(C)C` [D-F5-Phe-Gln-Trp-Ala-Val-D-Ala-His-Leu-methylester] (H-[dPhe(F5)]QWAV[dA]HL-OMe), the IC50 on bombesin receptor lay within 5 to 10 nM.
Consider `COC(=O)[C@H](CC(C)C)NC(=O)[C@H](Cc1c[nH]cn1)NC(=O)[C@@H](C)N(C)C(=O)[C@@H](NC(=O)[C@H](C)NC(=O)[C@H](Cc1c[nH]c2ccccc12)NC(=O)[C@H](CCC(N)=O)NC(=O)[C@H](N)Cc1ccccc1)C(C)C` [D-Phe-Gln-Trp-Ala-Val-N-methyl-D-Ala-His-Leu-methylester] (H-[dF]QWAV[dNMeA]HL-OMe), for which, at bombesin receptor, the IC50 fell in the range of 5 to 10 nM.
Consider “BIM-26114, D-Nal-Gln-Trp-Ala-Val-Gly-His-Leuψ[CH2NH]Leu-NH2 (Litorin analog) (peptide)”, for which, in experiment [2], the bombesin-stimulated [3H]Thymidine uptake, IC50 was 28 nM. This molecule displayed an IC50 in experiment [3] of 23.5 nM.
The matching figures for “BIM-26136, D-Nal-Gln-Trp-Ala-Val-Gly-His-Leuψ[CH2NH]Phe-NH2 (Litorin analog) (peptide)”: 3.3 nM and 1.4 nM.
The matching figures for “BIM-26182, D-Cpa-Gln-Trp-Ala-Val-Gly-His-β-Leu-NH2 (Litorin analog) (peptide)”: 4.77 nM and 0.88 nM.

B1: BIM-26100, pGlu-Gln-Trp-Ala-Val-Gly-His-Pheψ[CH2NH]Leu-NH2 (Litorin analog) (peptide)
peptide: EQWAVGHFL
modifications: pGlu at 1 (written E); reduced peptide bond ψ[CH2NH] between Phe 8 and Leu 9; C-terminal amide
With B1, the bombesin-stimulated [3H]Thymidine uptake, IC50 in experiment [2] is 26 nM. Further, in experiment [4], the IC50 came out at 23 nM.
For the molecule FQWAVGHL (D-Phe at 1; C-terminal amide) [BIM-26122, D-Phe-Gln-Trp-Ala-Val-Gly-His-Leu-NH2 (Litorin analog)], the IC50 in experiment [4] was determined as 5.9 nM.
GNHWAVGHLL-NH2 (also: reduced bond ψ[CH2NH] between Leu9 and Leu10) [BIM-26092, Gly-Asn-His-Trp-Ala-Val-Gly-His-Leuψ[CH2NH]Leu-NH2 (Neuromedin C analog)]: the bombesin-stimulated [3H]Thymidine uptake, IC50 in experiment [2] was 466 nM. The same molecule returned an IC50 in experiment [4] of 242 nM.

B2: BIM-26120, pGlu-Gln-Trp-Ala-Val-Gly-His-Sta-NH2 (Litorin analog) (peptide)
peptide: [pGlu]QWAVGH[Sta]-NH2
SMILES: CC(C)C[C@H](NC(=O)[C@H](Cc1c[nH]cn1)NC(=O)CNC(=O)[C@@H](NC(=O)[C@H](C)NC(=O)[C@H](Cc1c[nH]c2ccccc12)NC(=O)[C@H](CCC(N)=O)NC(=O)[C@@H]1CCC(=O)N1)C(C)C)[C@@H](O)CC(N)=O
For B2, the bombesin-stimulated [3H]Thymidine uptake, IC50 in experiment [2] came out at 165 nM. In addition, the IC50 in experiment [4] was determined as 150 nM.
The matching figures for [pGlu]QWAVGHLL-NH2 (also: reduced bond ψ[CH2NH] between Leu8 and Leu9) [BIM-26101, pGlu-Gln-Trp-Ala-Val-Gly-His-Leuψ[CH2NH]Leu-NH2 (Litorin analog)]: 296 nM and 118 nM.
